Assays:
PBS1 (synthetic) = assay: EMSA
PBS2 (synthetic) = assay: EMSA
PBS1a (synthetic) = assay: EMSA
KRAB-PBS1a (synthetic) = assay: cell_activity; details: with Tat
KRAB-PBS1 (synthetic) = assay: cell_activity; details: with Tat
KRAB-PBS2 (synthetic) = assay: cell_activity; details: for activity (fold repression): with Tat
PBS3 (synthetic) = assay: EMSA

AAATCTCTAGCAGTGGCG [HIV-1 PBS hairpin, PBS1 site]
Kd (PBS1 (synthetic)): 0.79 nM

GCAGTGGCGCCCGAACAG [HIV-1 PBS hairpin, PBS2 site]
Kd (PBS2 (synthetic)): 2.4 nM

GTGTGGAAAATCTCTAGCAGTGGCG [HIV-1 PBS hairpin, PBS1a site]
Kd (PBS1a (synthetic)): 1.25 nM

HIV-1 LTR-luciferase reporter (LTR658-luc)
activity (fold repression) (KRAB-PBS1a (synthetic); HeLa): 9.5 | activity (fold repression) (KRAB-PBS1 (synthetic); HeLa): 20 | activity (fold repression) (KRAB-PBS2 (synthetic); HeLa): 28

HIV-1 with wild-type B-subtype LTR
activity (% inhibition of virus production) (KRAB-PBS2 (synthetic); transduced PBMCs, NL4-3 challenge): > 90

TGGCGCCCGAACAGGGAC [HIV-1 PBS hairpin, PBS3 site]
Kd (PBS3 (synthetic)): 0.93 nM

chromosomally integrated HIV-1 LTR reporter (TZM-bl)
activity (fold repression) (KRAB-PBS1a (synthetic); TZM-bl luciferase): 15 | activity (fold repression) (KRAB-PBS1 (synthetic); TZM-bl luciferase): 7 | activity (fold repression) (KRAB-PBS2 (synthetic); TZM-bl luciferase): 20

Source: patent publication US20070213269
